Measured values from patent US20150118238A1 (Eli Lilly, published 2015).
Numbering of substitutions follows the chain as printed.

B1: Antibody I (antibody, V domains shown)
VH: EVQLQQSGTVLARPGASVKMSCKASGYSFTSYWMYWVKQRPGQGLEWIGGFHPGNSGTNYNQKFKGKAKLTAVTSASTAYMELSSLTNEDSAVYYCTRGYYYDGSFTYWGQGTLVTVSA
VL: EIQMTQSPASLSASVGETVTITCRASENIYSYLAWYQRKQGRSPQLLVYNAKPLAEGVPSRFSGSGSGTQFSLKINSLQPEDFGTYYCQHHYGTPFTFGSGTRLEIKR
notes: Captured by anti-mouse Fc and detected with anti-mouse IgG; also called R-PE-Antibody I (R-phycoerythrin conjugate used in the CTC assay)
B2: Antibody II (antibody, V domains shown)
VH: B1 VH with G54R
VL: B1 VL
notes: also called R-PE-Antibody II (R-phycoerythrin conjugate used in the CTC assay); Antibody II (Anti-cMET)

Legend:
[1] = molecular target: T1, human c-Met-ECD-Fc-Flis (human); assay: SPR (BIAcore), antibody captured by goat anti-mouse Fc, c-Met-ECD-Fc-Flis as analyte, 25 C, 1:1 model, n=2
T1 construct: Expressed in CHO cells; also called c-Met-ECD with Fc and Flis tag; ECD of human c-MET
T1 sequence (chain, as listed by the source limits assumed): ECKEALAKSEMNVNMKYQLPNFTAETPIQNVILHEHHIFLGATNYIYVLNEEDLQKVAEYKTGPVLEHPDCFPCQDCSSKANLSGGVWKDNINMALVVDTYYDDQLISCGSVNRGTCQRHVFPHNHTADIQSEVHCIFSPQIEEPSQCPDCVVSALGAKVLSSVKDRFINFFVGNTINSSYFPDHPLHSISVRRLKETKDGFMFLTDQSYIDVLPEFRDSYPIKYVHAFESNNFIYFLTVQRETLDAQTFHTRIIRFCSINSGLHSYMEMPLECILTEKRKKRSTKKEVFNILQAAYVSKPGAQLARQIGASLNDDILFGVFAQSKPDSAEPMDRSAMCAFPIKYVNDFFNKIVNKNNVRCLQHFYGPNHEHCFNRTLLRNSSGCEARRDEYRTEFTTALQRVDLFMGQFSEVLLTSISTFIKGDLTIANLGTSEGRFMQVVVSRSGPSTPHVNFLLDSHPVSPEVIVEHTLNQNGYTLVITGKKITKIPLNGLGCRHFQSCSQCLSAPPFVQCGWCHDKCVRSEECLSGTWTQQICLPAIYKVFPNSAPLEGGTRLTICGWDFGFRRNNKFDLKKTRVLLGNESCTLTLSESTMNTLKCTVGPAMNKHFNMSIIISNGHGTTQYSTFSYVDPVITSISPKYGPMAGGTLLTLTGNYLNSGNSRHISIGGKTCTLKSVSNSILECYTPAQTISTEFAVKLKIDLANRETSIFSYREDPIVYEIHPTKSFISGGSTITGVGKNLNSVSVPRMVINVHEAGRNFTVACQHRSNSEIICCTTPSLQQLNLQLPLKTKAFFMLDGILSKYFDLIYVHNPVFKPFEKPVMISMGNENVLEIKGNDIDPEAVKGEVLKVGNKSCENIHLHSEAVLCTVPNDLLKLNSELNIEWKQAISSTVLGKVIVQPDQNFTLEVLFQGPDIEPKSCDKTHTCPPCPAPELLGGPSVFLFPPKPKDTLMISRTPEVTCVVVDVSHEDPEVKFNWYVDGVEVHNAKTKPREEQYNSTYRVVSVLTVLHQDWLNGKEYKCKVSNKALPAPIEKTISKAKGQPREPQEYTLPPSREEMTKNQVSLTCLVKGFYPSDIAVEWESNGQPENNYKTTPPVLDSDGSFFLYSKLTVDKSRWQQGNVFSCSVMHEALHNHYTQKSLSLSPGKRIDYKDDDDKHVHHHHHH

[2] = molecular target: T1, human c-Met-ECD-Fc-Flis; assay: SPR (BIAcore)
[3] = molecular target: T2, ECD of human RON (R&D Systems, #1947-MS-050) (human, UniProt Q04912 25-957); assay: IHC pre-absorption/blocking: Antibody II at 2 microgram/mL incubated overnight with RON ECD, then used to stain slides
T2 construct: extracellular domain; Bought reagent; also called MST1R
Method: The antibody, or antigen-binding fragment thereof, of the present invention at 2 microgram/mL may be incubated overnight with either c-Met-ECD-Fc-Flis (SEQ ID NO: 23) or the ECD of human RON (R&D Systems, #1947-MS-050) at 200× molar excess on a rotator at 4° C. After overnight incubation, the antibody, or antigen-binding fragment thereof, of the present invention may be tested against slides of human tissue or cancer cell lines as described above in Example 6.

[4] = molecular target: T3, RON on RON-transfected NIH 3T3 cells (UniProt Q04912 25-1400, limits assumed); assay: IHC on FFPE cell microarray (Dako EnVision FLEX+), manual reading by brightfield microscope
T3 construct: whole, on cells; Formalin-fixed paraffin-embedded cell pellets in IHC; also called RON transfected NIH3T3 Cell Line
Source text: For staining human tumor cell lines, 60 million cells may be harvested, formalin-fixed, and processed into histogel. The histogel cell pellets may be embedded into paraffin blocks, cored, and designed into a cell microarray that may be re-embedded in a paraffin block and then microtomed onto slides. These slides may be immunohistochemically stained and counterstained using the IHC assay protocol as described above in Example 7. RON-transfected NIH 3T3 cells and mock NIH 3T3 cells (mouse embryonic fibroblasts) are used as non-c-MET expressing negative controls.

Binder	Kd [1] [nM]	koff [1] [s⁻¹]	kon [1] [M⁻¹ s⁻¹]	fold binding affinity compared to Antibody I [2] [fold]	binding result [3]	binding result [4]
B1	2.47	0.000302	123000	–	–	–
B2	0.37	4.6e-05	125000	> 5	no binding (tested: 200× molar excess)	no binding (tested: 2 µg/mL)
